Values joined by “and” are separate entries in the source; they are usually repeats but may differ in a detail not shown here. Equal values may be shown once.
Key:
[1] = substrate: CC[C@H](C)[C@H](NC(=O)[C@H](Cc1ccc(O)cc1)NC(=O)[C@@H]1CCCN1C(=O)[C@H](C)NC(=O)[C@H](CC(C)C)NC(=O)[C@H](CCSC)NC(=O)[C@H](CCC(=O)O)NC(=O)[C@H](CC(C)C)NC(=O)[C@H](CC(=O)O)NC(=O)[C@H](CC(C)C)NC(=O)[C@@H](N)CC(=O)O)C(=O)N1CCC[C@H]1C(=O)N[C@@H](CCSC)C(=O)N[C@@H](CC(=O)O)C(=O)N[C@@H](CC(=O)O)C(=O)N[C@@H](CC(=O)O)C(=O)N[C@@H](Cc1ccccc1)C(=O)N[C@@H](CCC(N)=O)C(=O)N[C@@H](CC(C)C)C(=O)O; assay: purified protein, by the assay type; settings: pH 7.0, 37.0 °C
[2] = substrate: O=C(O)CCC(=O)C(=O)O; assay: purified protein, by the assay type; settings: pH 7.0, 37.0 °C
[3] = biological target: MBP-HA-PHD3 (full-length human prolyl hydroxylase domain protein 3) (human) (UniProt Q9H6Z9)
[4] = biological target: MBP-HA-PHD3 (full-length human prolyl hydroxylase domain protein 3) (human) (UniProt Q9H6Z9); remark: listed apart in the source
[5] = other: PHD3, HIF-1α CODD substrate, This work (Table 2)

B1: PHD3 (Homo sapiens) (protein)
chain: MPLGHIMRLDLEKIALEYIVPCLHEVGFCYLDNFLGEVVGDCVLERVKQLHCTGALRDGQLAGPRAGVSKRHLRGDQITWIGGNEEGCEAISFLLSLIDRLVLYCGSRLGKYYVKERSKAMVACYPGNGTGYVRHVDNPNGDGRCITCIYYLNKNWDAKLHGGILRIFPEGKSFIADVEPIFDRLLFFWSDRRNPHEVQPSYATRYAMTVWYFDAEERAEAKKKFRNLTRKTESALTED
For B1, the Km [1, 5] was 24.03 ± 5.964 µM, the kcat [1, 5] was 0.06062 ± 0.00278 s⁻¹ and the kcat/Km [1, 5] was 2523 ± 466 M⁻¹ s⁻¹. For the same binder, the Km ([1]; other: increasing HIF-1α peptide (P564), saturating concentrations of all other reagents, PHD3) was 24.0 ± 6.0 µM, the Km [2, 5] was 43.29 ± 7.295 µM and the Km ([2]; other: increasing α-ketoglutarate, 100 μM peptide substrate, 10 μM PHD3) was 43.3 ± 7.3 µM.

B2: synthetic ACC2 peptide encompassing the P450 residue (peptide)
peptide: ERIGFPLMIKASEGGGGK
Work on B2 yielded a Km of PHD3 for the ACC2 P450 peptide, initial rates of α-ketoglutarate consumption in the 2,4-DNPH α-KG assay (10 μM PHD3) [3] of 41.2 µM.

B3: synthetic HIF-1α peptide encompassing the P564 residue (HIF-1α CODD, 19-mer) (peptide)
peptide: DLDLEMLAPYIPMDDDFQL
In the case of B3, the Km (app; substrate) of PHD3 for the HIF-1α peptide, initial rates of α-ketoglutarate consumption in the 2,4-DNPH α-KG assay (10 μM PHD3, 37 °C, pH 7.0) [4] is reported as 0.024 mM.

B4: PHD2_181-426 (Homo sapiens) (protein)
chain: PNGQTKPLPALKLALEYIVPCMNKHGICVVDDFLGKETGQQIGDEVRALHDTGKFTDGQLVSQKSDSSKDIRGDKITWIEGKEPGCETIGLLMSSMDDLIRHCNGKLGSYKINGRTKAMVACYPGNGTGYVRHVDNPNGDGRCVTCIYYLNKDWDAKVSGGILRIFPEGKAQFADIEPKFDRLLFFWSDRRNPHEVQPAYATRYAITVWYFDADERARAKVKYLTGEKGVRVELNKPSDSVGKDVF
In the case of B4, the Km ([1]; other: increasing HIF-1α peptide (P564), saturating concentrations of all other reagents, 3 μM PHD2) is reported as 5.2 ± 0.9 µM and 5.192 ± 0.940 µM and the Km ([2]; other: increasing α-ketoglutarate, 100 μM peptide substrate, 3 μM PHD2) is reported as 12.0 ± 3.0 µM and 11.970 ± 3.006 µM.

Reference: article PMC7961094, “Development of a colorimetric α-ketoglutarate detection assay for prolyl hydroxylase domain (PHD) proteins” (The Journal of Biological Chemistry, 2021)
